Results: patent US20250092146A1, “ANTI-CCR8 ANTIBODIES, CONJUGATES, AND USES THEREOF” (Abilita Bio, Inc., priority 2023, published 2025)

Assays:
hCCR8 = target: T1, hCCR8 (Homo sapiens, UniProt P51685); assay: Flow cytometry binding of VHH-Fc fusion antibodies to hCCR8 on stably transfected HEK293 cells; conditions: as Fc fusion antibodies
T1 construct: expressed in transfected cells
Protocol: VHH-Fc fusion antibodies were evaluated for their ability to bind to hCCR8 on stably transfected HEK293 cells by means of flow cytometry. Cells were incubated with different concentrations of the bivalent VHH-Fc fusions for 60 minutes at 4° C., followed by two washes with FACS buffer, followed by 30 minutes incubation at 4° C. with the Zenon R-Phycoerythrin Anti-human IgG (ThermoFisher Scientific, #Z-25455), and two additional washing steps. Data were plotted and fit using GraphPad Prism software. EC50 and Bmax values individual antibodies were calculated from the resulting dose-response curves. Bivalent VHH-Fc fusions (Seq ID NOs: 31, 33, and 87-103) of 19 different VHH domains (SEQ ID NOs: 27, 28, and 70-86) were tested for cell binding and results are shown in Table 7. […]
VHH-Fc fusion DNA constructs were then generated comprising encoding humanized VHH sequences (SEQ ID NOs: 106-111) fused in frame to the human IgG1 (SEQ ID NO: 34) directly to the short hinge sequence in the pFuse expression vector, and were expressed, purified and analyzed for binding to HEK293 cells expressing human CCR8 as in Example 5. Binding curves for VHH-Fc antibodies comprised of parental VHH-1 and the humanized VHH derivatives VHH-1.2-Fc and VHH-1.3-Fc are shown in FIG. 9A. Binding curves for VHH-Fc antibodies comprised of parental VHH-2 and the humanized VHH derivatives VHH-2-Fc, VHH-2.2-Fc and VHH-2.3-Fc, are shown in FIG. 9B. Cell binding EC50 values, normalized Bmax (relative to respective parental clone) data and humanizing mutations are shown in Table 10 below.
Approaches such as in vitro affinity maturation and rational mutagenesis can be performed to regain binding affinity and/or stability lost through humanization. In vitro affinity maturation generally involves building and amino acid substitution library where amino acid positions are varied across the CDRs and/or framework at a defined set of positions using sets of amino acids chosen to introduce new chemical diversity. The paratope residues within the CDR regions are of course key to antigen binding and care must be taken not to disrupt important structures while attempting to evolve improve antibody behavior. One approach to identify positions that are important to the maintenance of binding properties is to perform paratope mapping using single scanning alanine substitutions across antibody CDR regions. In this approach, residues that are critical to the maintenance of antibody binding to the antigen can be identified and at the same time permissive sites can be identified where it may be possible to make substitutions of other amino acids desirable for subsequent affinity maturation library construction. Site directed mutagenesis was used to make single alanine substitutions at each residue in the CDRs of VHH-1 (SEQ ID NO: 27) and VHH-2 (SEQ ID NO: 28). Changes in VHH-1 CDR amino acids to alanine are indicated in Table 11 (SEQ ID NOs: 112-137) and for VHH-2 CDRs (SEQ ID NO: 138-162) in Table 12. Mutation positions and residue changes to alanine with respect to the in the parental VHH sequences are referenced by their IMGT position. VHH domains containing the indicated modified CDR-1, CDR-2 or CDR-3 domains were used to construct Fc fusions by direct grafting to the short hinge of the human Fc domain (SEQ ID NO: 34). VHH-Fc constructs were expressed, purified and analyzed for binding to HEK293 cells expressing hCCR8 and the results are reported in Table 11 and Table 12. EC50 values are reported for each Fc fusion antibody containing a modified CDR, along with its respective Bmax value normalized to the to the matched wild type VHH-1-Fc or VHH-2-Fc fusion antibody.

[1] = target: T2, HuT-78 cells that naturally express human CCR8 (Homo sapiens, UniProt P51685); assay: Flow cytometry binding of yeast-display optimized VHH-Fc antibodies to HuT-78 cells; conditions: Table 13; for EC50: clones tested as VHH-Fc fusions (human IgG1 Fc), HuT-78 cells; for Normalized Bmax (%): normalized to VHH-1 or VHH-2 depending on clone family
T2 construct: HuT-78 cells that naturally express human CCR8 were used as target cells; endogenous in cells; host or cells: HuT-78
T2 sequence (P51685 whole entry, the tested form may be a part): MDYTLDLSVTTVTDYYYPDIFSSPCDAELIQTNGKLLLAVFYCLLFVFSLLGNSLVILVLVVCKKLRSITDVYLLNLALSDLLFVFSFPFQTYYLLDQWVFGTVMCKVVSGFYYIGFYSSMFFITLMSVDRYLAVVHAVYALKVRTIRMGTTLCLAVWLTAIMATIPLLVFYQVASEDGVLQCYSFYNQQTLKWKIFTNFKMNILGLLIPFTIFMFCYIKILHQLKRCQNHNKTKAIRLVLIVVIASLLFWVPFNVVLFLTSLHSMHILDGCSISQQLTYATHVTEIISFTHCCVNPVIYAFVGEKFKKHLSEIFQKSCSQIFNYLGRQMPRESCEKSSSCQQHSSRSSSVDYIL
Text: Top VHH sequences were chosen from the FACS sorted populations based on an analysis of improved binding performance relative to the parental sequences and evidence of sequence enrichment by NGS. Candidate VHH were then cloned as VHH-Fc fusions to the short hinge of the IgG1 Fc domain (SEQ ID NO: 34), expressed in HEK293 cells as described earlier and purified for binding evaluation. Bmax values are shown as normalized to VHH-1 or VHH-2 depending on the clone family. […] Mutations are referenced by position according to the IMGT definition.

T1 sequence (P51685 whole entry, the tested form may be a part): as above

Molecule | EC50 [1] | Normalized Bmax (%) [1] | binding to hCCR8 expressed on HEK293 cells (in words) (hCCR8)
VHH-1.2: humanized VHH-1, version 2, SEQ ID NO: 107 (protein) VHH: EVQLVESGGGLVQPGGSLRLSCAASGSTSSIRRIGWYRQAPGKGLEWVARFSSGGGTNYADSVKGRFTISGDNSKNTMYLQMNSLRAEDTAVYYCSARRLLGTSRVDYWGQGTTVTVSS |  |  | maintained their hCCR8 binding properties
VHH-1.3-18: VHH-1.3 variant A25V, R38G, S57I, N83K, SEQ ID NO: 203; tested as Fc fusion (protein) VHH: EVQLVESGGGLVQPGGSLRLSCAVSGSTSSIRGIGWYRQAPGKGRELVARFISGGGTNYADSVKGRFTISGDKSKNTMYLQMNSLRAEDTAVYYCSARRLLGTSRVDYWGQGTTVTVSS | 0.31 nM | 113.4% | 
VHH-1.3-2: VHH-1.3 variant L110V, SEQ ID NO: 187; tested as Fc fusion (protein) VHH: EVQLVESGGGLVQPGGSLRLSCAASGSTSSIRRIGWYRQAPGKGRELVARFSSGGGTNYADSVKGRFTISGDNSKNTMYLQMNSLRAEDTAVYYCSARRLVGTSRVDYWGQGTTVTVSS | 2.21 nM | 115.7% | 
VHH-1.3-14: VHH-1.3 variant G64S, L110V, SEQ ID NO: 199; tested as Fc fusion (protein) VHH: EVQLVESGGGLVQPGGSLRLSCAASGSTSSIRRIGWYRQAPGKGRELVARFSSGGSINYADSVKGRFTISGDNSKNTMYLQMNSLRAEDTAVYYCSARRLVGTSRVDYWGQGTQVTVSS | 0.9 nM | 131.9% | 
VHH-1.3-1: VHH-1.3 variant G64S, SEQ ID NO: 186; tested as Fc fusion (protein) VHH: EVQLVESGGGLVQPGGSLRLSCAASGSTSSIRRIGWYRQAPGKGRELVARFSSGGSTNYADSVKGRFTISGDNSKNTMYLQMNSLRAEDTAVYYCSARRLLGTSRVDYWGQGTTVTVSS | 2.03 nM | 85.3% | 
VHH-1.3-21: VHH-1.3 variant A25V, R38G, S57I, G81A, SEQ ID NO: 206; tested as Fc fusion (protein) VHH: EVQLVESGGGLVQPGGSLRLSCAVSGSTSSIRGIGWYRQAPGKGRELVARFISGGGTNYADSVKGRFTISADNSKNTMYLQMNSLRAEDTAVYYCSARRLLGTSRVDYWGQGTQVTVSS | 1.62 nM | 133.9% | 
VHH-1.3-17: VHH-1.3 variant R37V, R55H, R108I, N83K, SEQ ID NO: 202; tested as Fc fusion (protein) VHH: EVQLVESGGGLVQPGGSLRLSCAVSGSTSSIVRIGWYRQAPGKGRELVAHFSSGGGTNYADSVKGRFTISGDKSKNTMYLQMNSLRAEDTAVYYCSARILLGTSRVDYWGQGTTVTVSS | 0.67 nM | 72.8% | 
VHH-1.3-20: VHH-1.3 variant A25V, R38G, S57I, R108I, SEQ ID NO: 205; tested as Fc fusion (protein) VHH: EVQLVESGGGLVQPGGSLRLSCAVSGSTSSIRGIGWYRQAPGKGRELVARFISGGGTNYADSVKGRFTISGDNSKNTMYLQMNSLRAEDTAVYYCSARILLGTSRVDYWGQGTQVTVSS | 0.49 nM | 107.6% | 
VHH-2.2: humanized VHH-2, version 2, SEQ ID NO: 110 (protein) VHH: EVQLVESGGGLVQPGGSLRLSCAVSGSTSTINRFAWYRQAPGKGLEWVAATSSRTSPNYADSVKGRFTFSRDNSKNTVYLQMNSLRAEDTAVYYCQARMAMGSSQVVYWGQGTTVTVSS |  |  | maintained their hCCR8 binding properties
VHH-2.3-2: VHH-2.3 variant D81G, M108K, SEQ ID NO: 208; tested as Fc fusion (protein) VHH: EVQLVESGGGLVQPGGSLRLSCAVSGSTSTINRFAWYRQAPGKGRELVAATSSRTSPNYADSVKGRFTFSRGNSKNTVYLQMNSLRAEDTAVYYCQARKAMGSSQVVYWGQGTTVTVSS | 0.12 nM | 131.9% | 
VHH-2.3-1: VHH-2.3 variant D81G, SEQ ID NO: 207; tested as Fc fusion (protein) VHH: EVQLVESGGGLVQPGGSLRLSCAVSGSTSTINRFAWYRQAPGKGRELVAATSSRTSPNYADSVKGRFTFSRGNSKNTVYLQMNSLRAEDTAVYYCQARMAMGSSQVVYWGQGTTVTVSS | 0.23 nM | 118.3% | 

The remaining molecules from weak to strong by EC50 [1], led by results:

EC50 [1] | Normalized Bmax (%) [1] | Molecule | binding to hCCR8 expressed on HEK293 cells (in words) (hCCR8)
5.46 nM | 88.6% | VHH-1.3: humanized VHH-1, version 3, SEQ ID NO: 108; Table 13 tested as Fc fusion (protein) VHH: EVQLVESGGGLVQPGGSLRLSCAASGSTSSIRRIGWYRQAPGKGRELVARFSSGGGTNYADSVKGRFTISGDNSKNTMYLQMNSLRAEDTAVYYCSARRLLGTSRVDYWGQGTTVTVSS | maintained their hCCR8 binding properties
3.1 nM | 79.0% | VHH-1.3-16: VHH-1.3 variant S35T, R37V, G64S, R108I, SEQ ID NO: 201; tested as Fc fusion (protein) VHH: EVQLVESGGGLVQPGGSLRLSCAASGSTSTIVRIGWYRQAPGKGRELVARFSSGGSTNYADSVKGRFTISGDNSKNTMYLQMNSLRAEDTAVYYCSARILLGTSRVDYWGQGTTVTVSS | 
2.82 nM | 107.1% | VHH-1.3-15: VHH-1.3 variant S58G, SEQ ID NO: 200; tested as Fc fusion (protein) VHH: EVQLVESGGGLVQPGGSLRLSCAASGSTSSIRRIGWYRQAPGKGRELVARFSGGGGTNYADSVKGRFTISGDNSKNTMYLQMNSLRAEDTAVYYCSARRLLGTSRVDYWGQGTTVTVSS | 
1.7 nM | 83.3% | VHH-2.3-3: VHH-2.3 variant P65L, SEQ ID NO: 209; tested as Fc fusion (protein) VHH: EVQLVESGGGLVQPGGSLRLSCAVSGSTSTINRFAWYRQAPGKGRELVAATSSRTSLNYADSVKGRFTFSRDNSKNTVYLQMNSLRAEDTAVYYCQARMAMGSSQVVYWGQGTTVTVSS | 
0.45 nM | 130.0% | VHH-1.3-19: VHH-1.3 variant A25V, R38G, R55H, N83K, SEQ ID NO: 204; tested as Fc fusion (protein) VHH: EVQLVESGGGLVQPGGSLRLSCAVSGSTSSIRGIGWYRQAPGKGRELVAHFSSGGGTNYADSVKGRFTISGDKSKNTMYLQMNSLRAEDTAVYYCSARRLLGTSRVDYWGQGTQVTVSS | 
